# System: Protein Kinase Bα/AKT1 catalytic domain (SEQ ID NO:3, tag removed) before PDK1 treatment
# Sequence (chain, as listed by the source): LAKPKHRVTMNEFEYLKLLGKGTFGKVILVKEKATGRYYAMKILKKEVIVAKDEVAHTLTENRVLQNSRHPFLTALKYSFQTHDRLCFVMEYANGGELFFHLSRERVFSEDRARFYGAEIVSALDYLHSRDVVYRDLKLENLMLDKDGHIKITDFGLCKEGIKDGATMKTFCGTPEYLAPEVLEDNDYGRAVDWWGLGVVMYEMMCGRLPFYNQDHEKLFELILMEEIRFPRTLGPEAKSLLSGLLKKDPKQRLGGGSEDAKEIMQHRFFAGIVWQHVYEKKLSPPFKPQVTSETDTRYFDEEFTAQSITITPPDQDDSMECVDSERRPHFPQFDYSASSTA
substance,measurement,value
PDK1 kinase,phosphorylation of AKT1 (mass spectrometry),"Following 120 minute incubation with PDK1, AKT1 was converted into a mixture of mono and double phosphorylated proteins"
